From patent US20070111947A1, “Fibrin targeted therapeutics” (priority 2005, published 2007)

Tested on: arterial thrombosis (FeCl3 damaged carotid artery)
Assay: Arterial thrombosis model (FeCl3 damaged carotid artery)
Type: in vivo, rabbit
Procedure: Rabbits are initially sedated with a subcutaneous injection of Xylazine (5 mg/kg). Approximately 5 min following sedation, the animals are anesthetized with a dose of Ketamine (50 mg/kg) and Acepromazine (2.5 mg/kg) intramuscularly to achieve the appropriate level of anesthesia. Anesthetic depth will be assessed using the pain withdraw reflexes and EKG. Anesthesia is given intravenously every 45-60 min at 5-10 mg/kg to maintain proper anesthetic depth.
Left carotid artery is isolated using a ventral midline approach. A stenosis is initiated on the carotid artery reducing blood flow by 70-80%. 1 cm segments of carotid artery are placed in a plastic tube opened lengthwise, together with a filter paper (diameter 3 mm) soaked in ferric chloride (FeCl3, 40 μL, 40% w/w). After 15-30 min exposure of the artery to FeCl3, the plastic tube with the filter paper is removed and the artery is rinsed with saline. The time to vessel occlusion is monitored using a Doppler flow probe, which is attached to the carotid artery. ^125I fibrinogen (30 μCi/kg) is administered 5 min before initiation of the stenosis. The saline, test or control compounds are given via the jugular vein as an intravenous bolus injection immediately before or at the end of FeCl3 exposure. Blood sample are collected at 1, 3, 5, 12, 20, 30, 45, 60 and 90 min after compound injection via the contra lateral jugular vein. The time that blood flow dropped to zero is recorded as the occlusion time of blood vessel. At the end of experiment, animals are sacrificed with an overdose of pentobarbital (120 mg/kg). Both the clot from the FeCl3 damaged artery, and the damaged artery after clot removal are weighed. Right carotid artery is used as a control. Concentration of test compound and fibrin in the clot are detected by γ-countering.
Pharmacokinetics of compound are analyzed by using the WinNonLin program.

[1] = compared to an equivalent dose of Non-binder control, FIG. 4

CCC(C)[C@H](CC(=O)[C@@H](C)Cc1c[nH]cn1)C(=O)N[C@@H](CC(C)C)C(=O)NCc1ccc(CCC(=O)[C@H](CCNC(=O)CC[C@H]2C(=O)[O][Y]345[O]C(=O)CN(CCN2CCN(CC(=O)[O]3)CC(=O)[O]4)CC(=O)[O]5)NC(=O)CC[C@H]2C(=O)[O][Y]345[O]C(=O)CN(CCN2CCN(CC(=O)[O]3)CC(=O)[O]4)CC(=O)[O]5)cc1 (stereo partly shown) [Hybrid Molecule 3]
higher level bound to clot [1]: 5 fold
higher level bound to clot plus damaged artery [1]: 2 fold
increased time to occlusion (compared to an equivalent dose of melagatran alone or the Non-binder, FIG. 2): approximately 4 fold
decrease in clot weight (compared to an equivalent dose of melagatran or Non-binder control, FIG. 3): approximately 2 fold
